Values quoted from earlier work as cited in PMC5672955.
pKd: −log10 of the molar value.

Biological target: RNA polymerase (Escherichia coli) (UniProt P0A7Z4)

Sequence of UvrD (P03018 whole entry): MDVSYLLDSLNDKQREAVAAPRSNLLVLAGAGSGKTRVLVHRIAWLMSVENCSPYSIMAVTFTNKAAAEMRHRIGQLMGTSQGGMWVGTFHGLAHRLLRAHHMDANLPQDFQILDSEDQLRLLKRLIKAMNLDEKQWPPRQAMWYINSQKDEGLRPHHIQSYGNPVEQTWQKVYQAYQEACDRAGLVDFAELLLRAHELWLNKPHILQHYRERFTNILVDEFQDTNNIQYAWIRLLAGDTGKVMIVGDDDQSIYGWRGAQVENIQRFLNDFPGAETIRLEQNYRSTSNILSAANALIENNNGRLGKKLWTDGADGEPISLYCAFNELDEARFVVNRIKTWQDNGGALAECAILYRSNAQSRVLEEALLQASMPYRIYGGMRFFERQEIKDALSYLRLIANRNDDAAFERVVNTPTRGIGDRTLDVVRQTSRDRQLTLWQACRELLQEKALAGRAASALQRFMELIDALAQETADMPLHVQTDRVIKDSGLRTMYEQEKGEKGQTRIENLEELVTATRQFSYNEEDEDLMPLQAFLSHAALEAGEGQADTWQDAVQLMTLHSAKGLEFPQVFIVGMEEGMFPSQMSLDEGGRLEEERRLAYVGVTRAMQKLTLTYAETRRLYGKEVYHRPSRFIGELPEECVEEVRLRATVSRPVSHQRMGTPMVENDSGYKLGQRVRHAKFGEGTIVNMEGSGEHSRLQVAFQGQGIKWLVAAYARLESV

## UvrD (from UniProt P03018)
  pKd: 7.46
